Experimental data taken from PMC7823558 (Viruses, 2020).
Where two headings read alike, the source gives them in different places.

How the values were obtained:
gp11 = system: T1, gp11; test: coupled pyruvate kinase / lactate dehydrogenase assay, NADH absorbance at […] nm; format: biochemical, Lactococcus phage asccphi28; conditions: 0.1 µM gp11, 50 mM Tris pH 7.5, 72 mM KCl, 7.2 mM MgSO4, 2 mM PEP, 0.3 mM NADH
T1 construct: E. coli BL21(DE3)

[1] = target: gene product 11 (gp11), DNA packaging ATPase from Lactococcus lactis phage asccφ28 (Lactococcus lactis phage asccφ28); test: SEC
[2] = target: gene product 11 (gp11), DNA packaging ATPase from Lactococcus lactis phage asccφ28 (Lactococcus lactis phage asccφ28); test: AUC
[3] = target: gene product 11 (gp11), DNA packaging ATPase from Lactococcus lactis phage asccφ28 (Lactococcus lactis phage asccφ28); test: AUC; sedimentation velocity, data not shown

Nc1ncnc2c1ncn2[C@@H]1O[C@H](COP(=O)(O)OP(=O)(O)OP(=O)(O)O)[C@@H](O)[C@H]1O [ATP]
Km (gp11; read-out: ATP): 28 µM

Nc1nc2c(ncn2[C@@H]2O[C@H](COP(=O)(O)OP(=O)(O)OP(=O)(O)O)[C@@H](O)[C@H]2O)c(=O)[nH]1 [GTP]
Km (gp11; read-out: GTP): 344 µM

gene product 11 (gp11), DNA packaging ATPase from Lactococcus lactis phage asccφ28 (enzyme)
stoichiometry N [1]: 4 to 15 copies
stoichiometry N [2]: 10 monomers
stoichiometry N [3]: 10 monomers
